Here are results for one molecule from patent US20180051287A1 (VITRISA THERAPEUTICS, published 2018).

The target in the experiment is human complement Factor D present in C1q-depleted human serum (human, UniProt P00746 26-253). Put plainly: cell-based or functional assay.
human complement Factor D present in C1q-depleted human serum, sequence (P00746 26-253 limits assumed): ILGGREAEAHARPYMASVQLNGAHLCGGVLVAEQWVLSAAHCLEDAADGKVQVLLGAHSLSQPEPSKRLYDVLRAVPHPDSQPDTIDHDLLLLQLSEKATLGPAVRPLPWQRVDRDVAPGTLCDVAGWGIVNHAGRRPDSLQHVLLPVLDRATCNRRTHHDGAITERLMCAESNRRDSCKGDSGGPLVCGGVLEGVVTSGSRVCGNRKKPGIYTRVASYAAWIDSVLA

B1: anti-fD Fab with an amino acid sequence of heavy chain variable region according to SEQ ID NO: 71 and light chain variable region according to SEQ ID NO: 72 (Fab)
heavy: EVQLVQSGPELKKPGASVKVSCKASGYTFTNYGMNWVRQAPGQGLEWMGWINTYTGETTYADDFKGRFVFSLDTSVSTAYLQISSLKAEDTAVYYCERGGVNNWGQGTLVTVSSASTKGPSVFPLAPSSKSTSGGTAALGCLVKDYFPEPVTVSWNSGALTSGVHTFPAVLQSSGLYSLSSVVTVPSSSLGTQTYICNVNHKPSNTKVDKKVEPKSCDKTHT
light: DIQVTQSPSSLSASVGDRVTITCITSTDIDDDMNWYQQKPGKVPKLLISGGNTLRPGVPSRFSGSGSGTDFTLTISSLQPEDVATYYCLQSDSLPYTFGQGTKVEIKRTVAAPSVFIFPPSDEQLKSGTASVVCLLNNFYPREAKVQWKVDNALQSGNSQESVTEQDSKDSTYSLSSTLTLSKADYEKHKVYACEVTHQGLSSPVTKSFNRGEC
Turning to B1, the “IC50 inhibiting alternative complement in human serum (fD-dependent lysis of rabbit red blood cells)” value turned out to be 3.3 nM.
